From US20200247894A1 (Regeneron, published 2020)
Blank lines part the entries; values can stand above or below the binder they belong to.

Columns and labels:
[1] = biological target: T1, human IL-2Rγ expressed on cells (human, UniProt P31785 23-369); test: flow cytometry on NK-92 cells, antibody at 10 µg/ml, MFI of sample over MFI of unstained; lower end, tied to H4H12859P by Table 9-1
T1 construct: whole, on cells; on cells it stands together with the cytokine-specific receptor subunits; also called IL-2Rgamma; CD132
T1 sequence (looked up): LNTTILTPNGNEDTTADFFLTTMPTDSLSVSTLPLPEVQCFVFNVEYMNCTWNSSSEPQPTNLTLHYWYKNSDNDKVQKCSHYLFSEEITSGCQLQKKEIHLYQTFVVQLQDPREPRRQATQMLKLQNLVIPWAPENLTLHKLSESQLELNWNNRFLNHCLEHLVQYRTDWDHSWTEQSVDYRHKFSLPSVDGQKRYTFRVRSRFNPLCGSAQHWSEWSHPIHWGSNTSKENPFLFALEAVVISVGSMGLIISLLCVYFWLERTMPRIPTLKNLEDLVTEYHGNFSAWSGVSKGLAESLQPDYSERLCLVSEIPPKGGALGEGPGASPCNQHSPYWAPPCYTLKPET
Protocol: For flow cytometry analyses, the cells were pre-incubated with mouse IgG at 100 μg/ml for 15 minutes at room temperature (RT) to block the binding of the antibodies to Fc receptors. […] Cells were washed, fixed using BD CytoFix™ (BD biosciences, #554655) and analyzed on an IQue® (Intellicyt®) Flow Cytometer or Accuri Flow cytometer (BD). […] The results were analyzed using ForeCyt® (IntelliCyt®) software to determine the geometric means of fluorescence (MFI) for viable cells. Binding ratios were calculated by normalizing the MFI of the test sample by the MFI of the unstained sample.

[2] = biological target: T2, D1 domain of human IL-2Rγ extracellular domain expressed with a C-terminal myc-myc-hexahistidine tag (human); test: SPR, mAb captured on anti-hFc, 25 C
T2 construct: also called human IL2Rγ domain 1
T2 chain: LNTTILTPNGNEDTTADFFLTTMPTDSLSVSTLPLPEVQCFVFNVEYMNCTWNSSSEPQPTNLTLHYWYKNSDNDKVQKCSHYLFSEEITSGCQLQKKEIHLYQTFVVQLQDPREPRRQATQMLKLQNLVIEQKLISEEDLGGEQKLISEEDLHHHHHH
Procedure, shortened: (§1)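 HBS-ET running buffer (10 mM HEPES, 150 mM NaCl, 3 mM EDTA, 0.05% Tween-20, pH 7.4). mAb capture via anti-human Fc. Dissociation monitored 8-10 min. 1:1 kinetic fit; KD, t1/2 derived from ka/kd.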

[3] = biological target: T3, D2 domain of human IL2Rγ extracellular domain expressed with a C-terminal myc-myc-hexahistidine tag (human); test: SPR, mAb captured on anti-hFc, 37 C
T3 construct: also called human IL2Rγ domain 2
T3 chain: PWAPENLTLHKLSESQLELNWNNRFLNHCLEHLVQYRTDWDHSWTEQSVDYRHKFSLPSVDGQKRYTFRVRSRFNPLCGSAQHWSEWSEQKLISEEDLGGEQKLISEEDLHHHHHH
Procedure, shortened: (§2)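 Anti-IL2Rγ antibodies held on an anti-human Fc capture surface with receptor binding to them.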

[4] = biological target: T3, D2 domain of human IL2Rγ extracellular …; test: SPR, mAb captured on anti-hFc, 25 C
Procedure, shortened: as §2

[5] = biological target: T4, human IL2Rγ (endogenously expressed on cells) (human, UniProt P31785 23-369); test: cell-based or functional assay
T4 sequence (looked up): T1 sequence (looked up)

[6] = biological target: T4, human IL2Rγ (endogenously expressed on …); test: cell-based or functional assay; remark: listed apart in the source
[7] = biological target: T4, human IL2Rγ (endogenously expressed on …); test: cell-based or functional assay; remark: listed apart in the source
[8] = biological target: T2, D1 domain of human IL-2Rγ extracellular …; test: SPR, mAb captured on anti-hFc, 37 C
Procedure, shortened: as §1

binding ratio [1]: 1
B1: H4H12859P (antibody, human IgG4 S228P, kappa, V domains shown)
VH: QVQLVQSGAEVKKPGASVRVSCKASGYTFTDYDIHWVRQAPGHGLEWMGWINPNSGGTNYAQKFQGRVTMTRDTSISTVYMDLSRLRSDDTAVYYCARADYSSSYYYYGMDVWGQGTTVTVSS
VL: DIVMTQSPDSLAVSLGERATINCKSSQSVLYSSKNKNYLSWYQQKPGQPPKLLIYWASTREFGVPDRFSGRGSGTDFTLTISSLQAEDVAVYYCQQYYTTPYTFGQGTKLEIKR
notes: fully human anti-IL2Rγ antibody, human IgG4

100 nM Ag Bound [2]: 50 RU
Kd [2]: 3.32 nM
koff [2]: 0.000839 s⁻¹
kon [2]: 252000 M⁻¹ s⁻¹
t½ [2]: 14 min
100 nM Ag Bound [3]: 3 RU
100 nM Ag Bound [4]: 2 RU
binding result [4]: no binding (tested: 100 nM)
IC50; IL-9 (2 nM)-induced STAT3 phosphorylation, in vitro differentiated human mast cells [5]: 0.416 nM
IC50; IL-2 30 pM; NK92/hIL7R/STAT3-luc [6]: 1.6e-08 M
IC50; IL-4 250 pM; Ramos.2G6.4C10/STAT3-luc [6]: 1.3e-09 M
IC50; IL-7 50 pM; NK92/hIL7R/STAT3-luc [6]: 2.6e-09 M
IC50; IL-9 20 pM; NK92/hIL7R/STAT3-luc [6]: 3.1e-09 M
IC50; IL-15 60 pM; NK92/hIL7R/STAT3-luc [6]: 9.3e-09 M
IC50; IL-21 5 pM; NK92/hIL7R/STAT3-luc [6]: > 1e-07 M
Max Inhibition (%); IL-2 30 pM; NK92/hIL7R/STAT3-luc [6]: 85%
Max Inhibition (%); IL-4 250 pM; Ramos.2G6.4C10/STAT3-luc [6]: 100%
Max Inhibition (%); IL-7 50 pM; NK92/hIL7R/STAT3-luc [6]: 98%
Max Inhibition (%); IL-9 20 pM; NK92/hIL7R/STAT3-luc [6]: 99%
Max Inhibition (%); IL-15 60 pM; NK92/hIL7R/STAT3-luc [6]: 91%
Max Inhibition (%); IL-21 5 pM; NK92/hIL7R/STAT3-luc [6]: 49%
IC50; IL-2 (10 nM)-induced STAT phosphorylation, human CD4+ T cells [7]: 1.87 nM
IC50; IL-4 (50 pM)-induced STAT phosphorylation, human CD4+ T cells [7]: 8.54e-10 M
IC50; IL-7 (1 pM)-induced STAT phosphorylation, human CD4+ T cells [7]: 5.8e-10 M
IC50; IL-15 (0.5 nM)-induced STAT phosphorylation, human CD4+ T cells [7]: 2.46 nM
IC50; IL-21 (50 pM)-induced STAT phosphorylation, human CD4+ T cells [7]: 2.21e-09 M
100 nM Ag Bound [8]: 26 RU
Kd [8]: 4.13 nM
koff [8]: 0.00168 s⁻¹
kon [8]: 407000 M⁻¹ s⁻¹
t½ [8]: 7 min
B2: H4H12922P2 (antibody, human IgG4 S228P, kappa, V domains shown)
VH: QVQLVESGGGVVKPGGSLRLSCAASGFTFSNSGIHWVRQAPGKGLEWVALISYAGSNKYYADSVKGRFTISRDNSKNTLSLQMNSLRAEDTAVYYCAKEVWTGTYDSFDMWGRGTMVTVSS
VL: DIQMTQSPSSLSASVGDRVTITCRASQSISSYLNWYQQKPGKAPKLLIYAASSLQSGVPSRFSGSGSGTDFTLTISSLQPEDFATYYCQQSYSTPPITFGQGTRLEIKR
notes: human IgG4; also called REGN7256
